Laboratory results taken from patent US20230118302 (published 2023).
Residue numbers refer to the chain shown, from its start. Read-outs that look alike come from different tables or passages of the source.

Assays:
HER2 on cells [1] = molecular target: T1, HER2 on cells (human, UniProt P04626); experiment: FACS, MCF7
HER2 on cells [2] = molecular target: T1, HER2 on cells; experiment: FACS, MCF7; remark: listed apart in the source
HER2 on cells [3] = molecular target: T1, HER2 on cells; experiment: FACS, WI-38
CD16a V158 = CD16a V158 (human, UniProt P08637); experiment: SPR
HER2 ECD [4] = molecular target: T2, HER2 ECD (human, UniProt P04626); experiment: SPR
HER2 ECD [5] = molecular target: T2, HER2 ECD; experiment: SPR; remark: listed apart in the source

Chain of CD16a V158 (P08637 17-208 F176V): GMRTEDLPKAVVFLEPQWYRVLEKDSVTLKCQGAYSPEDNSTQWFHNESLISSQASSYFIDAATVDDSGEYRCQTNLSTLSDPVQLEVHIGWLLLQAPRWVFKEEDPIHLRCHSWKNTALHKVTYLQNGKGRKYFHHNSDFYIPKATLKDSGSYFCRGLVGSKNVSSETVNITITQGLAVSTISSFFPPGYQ

B1: v10000 (antibody)
chain 1: EVQLVESGGGLVQPGGSLRLSCAASGFTFADYTMDWVRQAPGKGLEWVGDVNPNSGGSIYNQRFKGRFTFSVDRSKNTLYLQMNSLRAEDTAVYYCARNLGPSFYFDYWGQGTLVTVSSASTKGPSVFPLAPSSKSTSGGTAALGCLVKDYFPEPVTVSWNSGALTSGVHTFPAVLQSSGLYSLSSVVTVPSSSLGTQTYICNVNHKPSNTKVDKKVEPKSCDKTHTCPPCPAPELLGGPSVFLFPPKPKDTLMISRTPEVTCVVVDVSHEDPEVKFNWYVDGVEVHNAKTKPREEQYNSTYRVVSVLTVLHQDWLNGKEYKCKVSNKALPAPIEKTISKAKGQPREPQVYVYPPSRDELTKNQVSLTCLVKGFYPSDIAVEWESNGQPENNYKTTPPVLDSDGSFALVSKLTVDKSRWQQGNVFSCSVMHEALHNHYTQKSLSLSPG
chain 2: not shown
chain 3: not shown
HER2 on cells [1]
  Kd: 3.7 nM
HER2 on cells [2]
  Kd: 6.8 nM
HER2 on cells [3]
  Kd: 8.4 nM

B2: v7148 (antibody)
chain 1: B1 chain 1 with A30T, G49A, F70L
chain 2: not shown
chain 3: not shown
modifications: v7091 conjugated to SMCC-DM1
CD16a V158
  Kd: 120 nM

B3: v7091 (antibody)
chain 1: B1 chain 1 with A30T, G49A, F70L
chain 2: not shown
chain 3: not shown
CD16a V158
  Kd: 120 nM

B4: v10014 (antibody, V domains shown)
VH: EVQLVESGGGLVQPGGSLRLSCAASGFTFADYTMDWVRQAPGKGLEWVADVNPNSGGSIYNQRFKGRFTLSVDRSKNTLYLQMNSLRAEDTAVYYCARNLGPSFYFDYWGQGTLVTVSS
VL: DIQMTQSPSSLSASVGDRVTITCKASQDVSIGVAWYQQKPGKAPKLLIYSASYRYTGVPSRFSGSGSGTDFTLTISSLQPEDFATYYCQQYYIYPATFGQGTKVEIK
HER2 ECD [4]
  Kd: 2 nM
HER2 ECD [5]
  Kd: 2.1 nM
